Tests used:
[1] = target: YFP-D/NP_TAIL, yellow fluorescent protein fused to the nucleoprotein tail of D/bovine/France/2986/20 (influenza D virus D/bovine/France/2986/2012); assay: SPR
[2] = target: importin-α7 (Homo sapiens) (UniProt O60684); settings: cited from earlier work
[3] = target: T1, human importin-α3 without its importin-β binding (IBB) domain (residues 64 to 521) (human, UniProt O00629 64-521); assay: SPR; settings: both partners purified
T1 construct: also called ΔIBB importin-α3; Imp-α3
T1 sequence (looked up): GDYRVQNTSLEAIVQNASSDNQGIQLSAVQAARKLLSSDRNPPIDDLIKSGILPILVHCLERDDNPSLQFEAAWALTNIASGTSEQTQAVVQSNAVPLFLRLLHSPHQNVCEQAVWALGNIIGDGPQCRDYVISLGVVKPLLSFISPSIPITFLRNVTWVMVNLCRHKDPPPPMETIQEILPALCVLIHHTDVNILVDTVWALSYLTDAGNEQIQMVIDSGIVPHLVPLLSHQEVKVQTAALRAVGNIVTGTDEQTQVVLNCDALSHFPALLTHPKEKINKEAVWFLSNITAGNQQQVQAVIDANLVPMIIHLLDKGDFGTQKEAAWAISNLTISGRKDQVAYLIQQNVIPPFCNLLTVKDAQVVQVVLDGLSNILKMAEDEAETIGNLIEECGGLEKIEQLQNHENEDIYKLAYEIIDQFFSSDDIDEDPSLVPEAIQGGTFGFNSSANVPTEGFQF

[4] = target: T2, human importin-α5 without its importin-β binding (IBB) domain (residues 66 to 538) (human, UniProt P52294 66-538); assay: SPR; settings: both partners purified
T2 construct: also called ΔIBB importin-α5; Imp-α5

[5] = target: T3, human importin-α7 without its importin-β binding (IBB) domain (residues 58 to 536) (human, UniProt O60684 58-536); assay: SPR; settings: both partners purified
T3 construct: also called ΔIBB importin-α7; Imp-α7

[6] = target: T1, human importin-α3 without its …; assay: SPR; settings: both partners purified; remark: listed apart in the source
[7] = target: T2, human importin-α5 without its …; assay: SPR; settings: both partners purified; remark: listed apart in the source
[8] = target: T3, human importin-α7 without its …; assay: SPR; settings: both partners purified; remark: listed apart in the source

T2 sequence (P52294 66-538): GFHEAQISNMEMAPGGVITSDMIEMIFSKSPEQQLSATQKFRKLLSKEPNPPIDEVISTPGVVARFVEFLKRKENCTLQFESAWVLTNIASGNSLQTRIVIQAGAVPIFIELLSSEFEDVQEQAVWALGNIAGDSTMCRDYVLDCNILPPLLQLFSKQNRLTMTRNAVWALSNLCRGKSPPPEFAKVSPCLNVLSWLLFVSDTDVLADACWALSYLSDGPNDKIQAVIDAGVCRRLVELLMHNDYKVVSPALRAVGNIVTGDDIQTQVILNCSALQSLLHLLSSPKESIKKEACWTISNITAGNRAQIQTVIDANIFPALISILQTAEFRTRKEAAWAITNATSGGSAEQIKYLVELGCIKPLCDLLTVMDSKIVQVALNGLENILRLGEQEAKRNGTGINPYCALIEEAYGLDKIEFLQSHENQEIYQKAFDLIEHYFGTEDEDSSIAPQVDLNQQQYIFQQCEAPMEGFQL
T3 sequence (O60684 58-536): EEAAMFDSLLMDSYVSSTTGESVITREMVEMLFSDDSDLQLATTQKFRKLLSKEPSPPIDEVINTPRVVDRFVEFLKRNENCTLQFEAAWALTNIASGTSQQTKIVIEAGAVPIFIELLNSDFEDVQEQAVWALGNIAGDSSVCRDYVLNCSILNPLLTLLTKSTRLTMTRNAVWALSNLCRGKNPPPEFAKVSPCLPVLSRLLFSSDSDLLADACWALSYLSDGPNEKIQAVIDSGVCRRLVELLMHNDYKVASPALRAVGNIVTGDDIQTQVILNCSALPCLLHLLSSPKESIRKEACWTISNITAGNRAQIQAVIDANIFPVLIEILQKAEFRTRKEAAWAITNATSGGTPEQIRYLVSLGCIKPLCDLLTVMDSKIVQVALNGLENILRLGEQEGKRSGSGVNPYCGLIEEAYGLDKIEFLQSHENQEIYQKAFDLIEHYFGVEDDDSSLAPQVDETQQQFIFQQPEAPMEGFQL

## human importin-α3 without its importin-β binding (IBB) domain (residues 64 to 521) (from UniProt O00629 64-521) (domain or fragment)
[1]
  Kd: 22 nM
  koff: 0.007 s⁻¹
  kon: 2.8e+06 M⁻¹ s⁻¹

## human importin-α7 without its importin-β binding (IBB) domain (residues 58 to 536) (from UniProt O60684 58-536) (domain or fragment)
[1]
  Kd: 29 nM
  koff: 0.104 s⁻¹
  kon: 5e+06 M⁻¹ s⁻¹

## human importin-α5 without its importin-β binding (IBB) domain (residues 66 to 538) (from UniProt P52294 66-538) (domain or fragment)
[1]
  Kd: 21 nM
  koff: 0.5 s⁻¹
  kon: 1.1e+06 M⁻¹ s⁻¹

## influenza B nucleoprotein NPTAIL (30-71) (from UniProt P13885)
[2]
  Kd: 844 nM

B1: B/NP_TAIL-YFP, nucleoprotein tail of B/Memphis/13/03 (residues 1 to 71) fused to yellow fluorescent (domain or fragment)
chain: MSNMDIDGINTGTIDKTPEEITSGTSGTTRPIIRPATLAPPSNKRTRNPSPERATTSSEADVGRKTQKKQT
[3]
  Kd: 308 ± 106 nM
[4]
  Kd: 770 ± 24 nM
[5]
  Kd: 405 ± 5 nM
[6]
  koff: > 1 s⁻¹
  kon: > 1e+07 M⁻¹ s⁻¹
[7]
  koff: > 1 s⁻¹
  kon: > 1e+07 M⁻¹ s⁻¹
[8]
  koff: > 1 s⁻¹
  kon: > 1e+07 M⁻¹ s⁻¹

From paper PMC7472415 (Viruses, 2020)
